Source: publication PMC5526978

Molecular target: GCSF-Fc (human granulocyte colony-stimulating factor fused with the IgG1 Fc domain at the C-terminus) (UniProt P09919)
Experiment: non-reducing SDS-PAGE; purified GCSF-Fc run under reducing and non-reducing conditions, 10% SDS-PAGE

stoichiometry N: 2
Substance: GCSF-Fc (human granulocyte colony-stimulating factor fused with the IgG1 Fc domain at the C-terminus) (from UniProt P09919-2 31-204) (Fc fusion)
